The values below come from publication PMC4753422.

In the experiment the target is papain (UniProt P00784). The experiment can be described thus: enzyme inhibition kinetics (papain proteolysis progress curves); anti-papain activity from papain proteolysis progress curves with the fluorigenic substrate Z-Phe-Arg-methylcoumarin; apparent (said of the Cysta-tag's constant).
Chain of UniProt P00784 (P00784 134-345): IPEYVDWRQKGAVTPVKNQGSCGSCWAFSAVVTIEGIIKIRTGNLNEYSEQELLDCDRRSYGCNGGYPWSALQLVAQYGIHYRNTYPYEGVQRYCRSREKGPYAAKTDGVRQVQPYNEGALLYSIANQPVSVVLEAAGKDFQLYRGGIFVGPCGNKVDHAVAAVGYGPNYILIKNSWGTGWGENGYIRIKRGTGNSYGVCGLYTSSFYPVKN

Take “tomato multicystatin domain SlCYS8 (domain or fragment)”: the Kd turned out to be 43 nM.
Under “Cysta-tag (Ala-62-(His)6-Gly-63 variant of SlCYS8) (domain or fragment)” stands 42 nM.
